# Laboratory results published in PMC7022630 (Biomolecules, 2020).
# Target: the molecule itself
# Assay: SEC-MALS; Superdex 200 10/300 GL; 20 mM Tris-HCl pH 7.5, 150 mM sodium chloride, 0.5 mM TCEP; 100 μL of monomer and dimer fractions of NDRG3 ΔNC at 2.0 mg/mL injected separately, 0.4 mL/min
protein,measurement,value
"truncated human NDRG3 (residues 29–320, NDRG3 ΔNC) (domain or fragment, N-Myc downstream-regulated gene 3 protein (NDRG3), human, 375 amino acids, residues 29-320; Elutes as monomer and dimer fractions; mainly monomer; No removal of the His tag is described; also called NDRG3 ΔNC WT; NDRG3 ΔNC wild type; source: E. coli BLR(DE3), purified (Ni-chelating, Q HP, Superdex 200); for the analytical SEC loaded after the Ni-chelating column) not shown",stoichiometry N,2
